Source: PMC7335425 (Cell, 2020)

What was measured:
Assay in all cases: negative stain EM
[1] = molecular target: MCE protein with six MCE domains from Pseudomonas aeruginosa (Pseudomonas aeruginosa)
[2] = molecular target: LetB ΔPLL3 mutant, TM helix deleted (E. coli) (UniProt P76272)
[3] = molecular target: LetB six-ring truncation mutant (ring 6 removed), TM helix deleted (E. coli) (UniProt P76272)
[4] = molecular target: LetB ΔPLL2 mutant, TM helix deleted (E. coli) (UniProt P76272)

MCE protein with six MCE domains from Pseudomonas aeruginosa (natural protein)
stoichiometry N [1]: 6

LetB ΔPLL3 mutant, TM helix deleted (from UniProt P76272 43-877) (domain or fragment)
stoichiometry N [2]: 6

LetB six-ring truncation mutant (ring 6 removed), TM helix deleted (from UniProt P76272 43-877) (domain or fragment)
stoichiometry N [3]: 6

LetB ΔPLL2 mutant, TM helix deleted (from UniProt P76272 43-877) (domain or fragment)
stoichiometry N [4]: 6
